Assay results: patent publication US20030148958A1 (PROCTER AND GAMBLE, published 2003)

T1: CRF2R
T1 sequence (Q13324 whole entry, species assumed, looked up): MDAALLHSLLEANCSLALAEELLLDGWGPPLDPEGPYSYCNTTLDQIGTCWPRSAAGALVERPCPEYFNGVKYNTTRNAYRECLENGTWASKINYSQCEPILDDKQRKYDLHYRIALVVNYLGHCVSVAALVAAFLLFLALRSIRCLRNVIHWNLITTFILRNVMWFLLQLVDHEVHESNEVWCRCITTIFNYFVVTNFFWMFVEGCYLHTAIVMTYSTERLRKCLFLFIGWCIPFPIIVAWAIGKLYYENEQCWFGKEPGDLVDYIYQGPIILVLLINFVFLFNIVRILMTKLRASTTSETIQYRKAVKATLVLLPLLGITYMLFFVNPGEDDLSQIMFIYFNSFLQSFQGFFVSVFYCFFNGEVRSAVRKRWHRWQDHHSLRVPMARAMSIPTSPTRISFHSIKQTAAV


Assays:
CRF2R = target: T1, CRF2R; experiment: cell-based or functional assay
CRF1R = experiment: cell-based or functional assay
Wherever CRF1R Emax % is given: reference of the scale not given here.
Wherever CRF2R Emax % is given: reference of the scale not given here.

| Binder | CRF2R EC50 (CRF2R) [nM] | CRF2R Emax % (CRF2R) [%] | CRF1R EC50 (CRF1R) [nM] | CRF1R Emax % (CRF1R) [%] |
| --- | --- | --- | --- | --- |
| ZGPPISIDLPLHLLRKMIEIEKQEKEKQQATTNARLLDTV (C-terminal amide) [SEQ ID NO 238] | 16.7 | 100 | 753 | 88 |
| ZGPPISIDLPLYLLRKMIEIEKQEKEKQQATTNARLLDRV (C-terminal amide) [SEQ ID NO 243] | 16.8 | 100 | 440 | 96 |
| ZGPPISIDLPLQLLEKMIEIEKQEKEKQQATTNARLLDRV (C-terminal amide) [SEQ ID NO 247] | 18.8 | 100 | 1000 | 34 |
| ZGPPISIDLPLHLLRKMIEIEKQEKEKQQATTNARLLDRV (C-terminal amide) [SEQ ID NO 239] | 13.2 | 100 | 587 | 80 |
| ZGPPISIDLPLQLLRKMIEIEKQEKEKQQATTNARLLDTV (C-terminal amide) [SEQ ID NO 246] | 38.8 | 100 | 1000 | 33 |
| ZGPPISIDLPIYLLRKMIEIEKQEKEKQQAANNALLLDTI (C-terminal amide) [SEQ ID NO 236] | 40.4 | 97 | 1000 | 15 |
| ZGPPISIDLPLQLLEKMIEIEKQEKEKQQAANNALLLATI (not fully specified; C-terminal amide) [SEQ ID NO 249] | 12.2 | 92 | 1000 | 50 |
| ZGPPISIDLPLYLLRKMIEIEKQEKEKQQAANNALLLATI (C-terminal amide) [SEQ ID NO 245] | 7.5 | 93 | 381 | 100 |
| ZGPPISIDLPLHLLRKMIEIEKQEKEKQQAANNALLLDTI (C-terminal amide) [SEQ ID NO 240] | 22 | 100 | 915 | 80 |
| ZGPPISIDVPIGLLRKMIEIEKQEKEKQQAANNRLLLDTI (not fully specified; C-terminal amide) [SEQ ID NO 254] | 100 | 36 | 708 | 6 |
| ZGPPISIDLPLYLLRKMIEIEKQEKEKQQAANNALLLDTI (C-terminal amide) [SEQ ID NO 244] | 8.8 | 98 | 300 | 100 |
| ZGPPISIDLPLYLLRKMIEIEKQEKEKQQATTNARLLDTV (C-terminal amide) [SEQ ID NO 242] | 29 | 94 | 358 | 99 |
| ZGPPISIDLPTYLLRILIEIEKQEKEKQQAANNRLLLDTI (not fully specified; C-terminal amide) [SEQ ID NO 252] | 22.3 | 100 | 226 | 100 |
| ZGPPISIDLPFQLLRILIEIEKQEKEKQQAANNRLLLDTI (not fully specified; C-terminal amide) [SEQ ID NO 255] | 7 | 100 | 33.3 | 84 |
| ZGPPISIDLPFQLLRKMIEIEKQEKEKQQAANNALLLDTI (C-terminal amide) [SEQ ID NO 251] | 11.8 | 100 | 926 | 80 |
| ZGPPISIDLPLHLLRKMIEIEKQEKEKQQAANNALLLATI (C-terminal amide) [SEQ ID NO 241] | 12.6 | 99 | 308 | 99 |
| ZGPPISIDLPFQLLRKMIEIEKQEKEKQQAANNRLLLATI (not fully specified; C-terminal amide) [SEQ ID NO 250] | 19.7 | 100 | 138 | 99 |
| ZGPPISIDLPLQLLRKMIEIEKQEKEKQQAANNALLLDTI (not fully specified; C-terminal amide) [SEQ ID NO 248] | 19.6 | 98 | 1000 | 32 |
| ZGPPISIDVPTYLLRKMIEIEKQEKEKQQAANNRLLLDTI (C-terminal amide) [SEQ ID NO 253] | 41.8 | 86 | 1000 | 42 |
| ZGPPISIDLPIYLLRKMIEIEKQEKEKQQAANNALLLATI (C-terminal amide) [SEQ ID NO 237] | 22.2 | 93 | 1000 | 18 |
